Assay results: patent US20040241820A1

Target: Savinase® (subtilisin 309) (UniProt P29600)
Experiment: cell-based or functional assay

Sequence of UniProt P29600 (P29600 whole entry): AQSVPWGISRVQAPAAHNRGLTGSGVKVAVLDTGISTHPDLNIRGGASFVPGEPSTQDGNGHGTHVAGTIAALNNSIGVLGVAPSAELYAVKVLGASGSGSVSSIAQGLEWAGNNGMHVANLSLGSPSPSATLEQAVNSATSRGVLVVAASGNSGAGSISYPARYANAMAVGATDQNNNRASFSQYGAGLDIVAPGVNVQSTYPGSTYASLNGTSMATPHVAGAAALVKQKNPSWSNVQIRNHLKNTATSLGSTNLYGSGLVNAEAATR

RA (%) (Residual Activity in the Ovo-inhibition Assay; hydrolysis of Suc-Ala-Ala-Pro-Phe-pNA with versus without inhibitor): < 5%
Substance: trypsin inhibitor type IV-0 (Ovo-inhibitor), Sigma T-1886 (from UniProt P10184 69-517)
